Measured values: patent US20180312539A1, “METHODS FOR PREPARING HIGH THROUGHPUT PEPTIDOMIMETICS, ORALLY BIOAVAILABLE DRUGS AND COMPOSITIONS CONTAINING SAME” (University of Southern California, priority 2011, published 2018)
“And” between values parts separate entries of the source, which are not always exact repeats. Equal values may be shown once. Blank lines part the entries; values can stand above or below the molecule they belong to. *1 amine or outer side, *2 acyl side, *3 side chain or, on linkers, in order; H or OH if unused. Where a SMILES comes first, the peptide text is derived from it. Bridges are numbered along the chain shown (N, C = ends). Where no end group is shown, it is not given here. [ ]: non-standard residue; d: D form. The star is where a group is joined. 5FAM = O=C1OC2(c3ccc(O)cc3Oc3cc(O)ccc32)c2ccc(C(=O)*)cc21; Biotin = O=C1N[C@H]2[C@H](CS[C@H]2CCCCC(=O)*)N1; NMeW = CN[C@@H](Cc1c[nH]c2ccccc12)C(=O)O; Glutaryl = O=C(CCCC(=O)[*:2])[*:1]; NMeNva = CCC[C@H](NC)C(=O)O; NMeA = CN[C@@H](C)C(=O)O

Legend:
Human serum digests = assay type: in vitro ADME; conditions: reconstituted human serum, 37° C
Procedure: (§1) Delipidated/lyophilized human serum was purchased from Thermo Scientific and reconstituted as per manufacturer's instructions. 250 nmoles of peptide in 50 μLs of sodium phosphate buffer (pH=8.0) with 10% DMSO was added to 1 mL of reconstituted serum and incubated at 37° C. 100 μL aliquots were taken at various time points and quenched in 300 μLs of acetonitrile. Samples were spun down and decanted to remove precipitate followed by dilution in water to 1.5 mLs. Samples were then analyzed by HPLC as described in the protease resistance experiment.
as §1, with “μL” for “μLs”, “mLs.” for “mLs. Samples were then analyzed by HPLC as described in the protease resistance experiment.”
The human serum and human microsome stability of the Gαi1 binding SUPR peptide ([…] (SEQ ID NO: 7)) were compared to the peptides ability to bind to Her-2. Beginning with the human serum analysis, peptides were digested with 95% human serum at 37° C. Analysis was performed by HPLC. […] Therefore, intact peptide is only completely unmodified peptide. Digestions of SUPR, HMP, and PMP are show have lives very similar to SUPR. Digestion of PMP2 is in progress. Without being bound by theory, Applicants theorize that the fitting for HMP may have produced an artificially low half-life.

[1] = PAMPA (parallel artificial membrane permeability assay); assay type: in vitro ADME; conditions: for Log Pe of peptide (biotinylated): biotin-labeled peptide (number + B), non-reducible biotin; for Log Pe of peptide (biotinylated) / Log Pe of peptide: PBS pH 7.4, 24 hrs; for Log Pe: peptide conjugated to biotin containing a reducible disulfide (RB), acceptor well reducing (10 mM DTT); for Log Pe of peptide: unmodified peptide, room temperature
Procedure: PAMPA assays were set up following manufacturer's instructions. Briefly, 1% phosphatidyl choline (Sigma) was dissolved in dodecane (Sigma) at 65° C. for 3 min. The membrane was applied to each well as per manufacturer's instructions. […] 100 μL of sample was put into each donor well. The acceptor wells contained 300 μL of a 5% DMSO in PBS solution. Passive diffusion was allowed to occur at room temperature for 24 hrs. […] Absorbance at 215 nm was monitored. The area under the peptide peak was integrated.
The acceptor well contained 10 mM DTT as a reducing agent. Data was collected after 6, 12 and 24 hrs. Absorbance at 280 nm was analyzed. The following formula was used to calculate Log Pe: […]
Applicants employed a parallel artificial membrane permeability assay (PAMPA) that will allow for the rapid screening of peptide passive diffusion across a phospholipid bilayer. (Schmidt, et al. (2003) J. Millipore Corporation Application Note AN1729EN00.). In this assay, two chambers are separated by a phospholipid bilayer supported on an inert membrane. Applicants chose to initially focus Applicants examination on peptide ligands developed to bind with high affinity to the heterotrimeric G-proteins Gαi1*GDP and Gα12*GDP. Ja, W. W., et al. (2004) Biochemistry 43:9265; Millward, S. W., et al. (2007) ACS Chem. Biol. 2:625; Fiacco, S. et al. (2008) ChemBioChem 9:2200. These ligands included variations in sequence, size, overall charge, and polarity as well as comparing linear and cyclic peptides, end and biotinylation. […] According to classical methods of increasing permeability. Pinski, C. A., et al. (2001) Advanced Drug Delivery Reviews 46:3. Applicants postulated that the removal of hydrogen bond donors by N-methylation should further increase the permeability of this peptide.

[2] = cited from earlier work
chymotrypsin = biological target: T1, chymotrypsin (Bos taurus, UniProt P00766); assay: Protease resistance experiment, chymotrypsin digest; assay type: in vitro ADME
T1 construct: purchased Sigma
Procedure: Immobilized chymotrypsin and proteinase K purchased from Sigma.
Protease resistance enhancement was then tested.
Towards that end, three peptides were synthesized. […] The effects were dramatic and surprising.

proteinase K = proteinase K (Parengyodontium album, UniProt P06873); conditions: immobilized proteinase K, 4° C; for Cyc t1/2: cyclic peptide; for Lin t1/2: linear peptide
Procedure: Immobilized chymotrypsin and proteinase K purchased from Sigma. 250 nmoles of peptide in DMSO were added to 50 mM sodium phosphate buffer (pH=8.0) with a final DMSO concentration of 2%. […] The graph was generated by fitting the data to a one phase exponential decay equation (GraphPad Prism 5.0).
Protease resistance enhancement was then tested. The simplest solution for enhancing protease resistance would be the removal of amino acids recognized by protease K and chymotrypsin.
Next the role of each of the N-methyl alanines was analyzed independently. […] For example sequence modifications, including N-methylation would be accomplished one amino acid at a time, walking the peptide from low protease stability to high stability. Whether this is a viable approach for making a peptide like SUPR was investigated. Towards that end, Applicants walked back from SUPR peptide to something closer to cycGIBP, and to determine if there was a gradual decrease in protease resistance. Towards that end, three peptides were synthesized. Two of them contained only one NMA (alanine was substituted for NMA), and the other had no NMA. It was hypothesized that if one could walk back to cycGIBP, then one would expect the loss of a single N-methyl to have some effect on reducing protease resistance, but to still be better than cycGIBP.

[3] = parameters: species or system C57BL6 mice; conditions: mouse, in vivo
Procedure: The following peptides were synthesized for oral administration: […](FAM) (SEQ ID NO: 14), […](FAM)DK(Palmitoleic acid) (SEQ ID NO: 15), and […](FAM) (SEQ ID NO: 16), wherein FAM is a lysine derivative containing fluorescein. All peptides were cyclized from the side chain to lysine to the N-terminus as previously described. Anesthetized C57BL6 mice had peptide administered at a dose of 10 mg/kg by oral gavage. After administration, mice were removed from isoflurane. At various time points, blood samples were taken by orbital bleeding as previously described. Peaks were normalized to a 15 minute time point from mice that had peptide administered by IV injection.
The following peptides were synthesized for oral administration: […](FAM) (SEQ ID NO: 14), […](FAM) (SEQ ID NO: 16), […](FAM)DK(biotin) (SEQ ID NO: 38), and […](FAM)DK(Palmitoleic acid) (SEQ ID NO: 15). All peptides were cyclized from the side chain to lysine to the N-terminus as previously described in Millward, S. W. et al. (2007) ACS Chem. Biol. 2:625. Anesthetized C57BL6 mice had peptide administered at a dose of 10 mgs/Kg by oral gavage. After administration, mice were removed from isoflurane. At various time points, blood samples were taken by orbital bleeding as previously described. Peaks were normalized to a 20 minute time point from mice that had peptide administered by IV injection. Area under the curve was analyzed by Graphpad 5.0.
In addition to accessing intracellular targets in cell culture, deriving a simple modification that would facilitate oral bioavailability of peptidic ligands would be greatly beneficial for therapeutic development. Intestinal absorption of both fatty acids and biotin is nearly 100% efficient. Zempleni, J. and Mock, D. M. (1999) The American Journal of Clinical Nutrition 69:504. […] Applicants synthesized a protease resistant peptide with the sequence […]-mod (designated SUPR peptide) (SEQ ID NO: 50), where A is N-methyl alanine, the peptide is cyclized from lysine to the N-terminus, and K(mod) is lysine with a modified sidechain including either biotin or palmitoleic acid. Palmitoleic acid is a monounsaturated fatty acid chosen for its ability to bind human serum albumin, and its low melting point allowing for more favorable solubility of conjugated peptides as compared to […] fatty acid conjugates. This peptide was administered to mice at a dose of 10 mg/kg by oral gavage. At various time points, blood was taken from the mice by orbital bleeding. After processing, fluorescence was quantified and compared to the maximum signal obtained by IV injection of peptide at the same dose.

proteinase K, sequence (P06873 106-384): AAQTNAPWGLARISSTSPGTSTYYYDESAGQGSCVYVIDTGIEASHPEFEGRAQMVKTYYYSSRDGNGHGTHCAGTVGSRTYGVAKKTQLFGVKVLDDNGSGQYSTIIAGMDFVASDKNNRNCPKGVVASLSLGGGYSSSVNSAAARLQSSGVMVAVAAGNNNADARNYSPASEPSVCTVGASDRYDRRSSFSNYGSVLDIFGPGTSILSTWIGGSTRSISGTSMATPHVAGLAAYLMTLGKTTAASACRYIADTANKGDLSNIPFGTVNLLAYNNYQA

half-life (Human serum digests): ~504 s
Molecule: CC[C@H](C)[C@H](NC(=O)[C@@H](N)CCSC)C(=O)N[C@H](C(=O)N[C@@H](Cc1c[nH]c2ccccc12)C(=O)N[C@@H](Cc1ccc(O)cc1)C(=O)N[C@@H](CCC(=O)O)C(=O)N[C@@H](Cc1ccccc1)C(=O)N[C@H](C(=O)N[C@@H](C)C(=O)NCC(=O)N[C@H](C(=O)N[C@@H](CCCCN)C(N)=O)[C@@H](C)O)C(C)C)[C@@H](C)O [linGIBP, reference compound] (H-MITWYEFVAGTK-NH2)

Molecule: MRLVWIVRSRHFGPRLRMAK (MRLVWIVRSRHFGPRLRMAK(Biotin)-NH2; N-terminus assumed; SMILES CC[C@H](C)[C@H](NC(=O)[C@H](Cc1c[nH]c2ccccc12)NC(=O)[C@@H](NC(=O)[C@H](CC(C)C)NC(=O)[C@H](CCCNC(=N)N)NC(=O)[C@@H](N)CCSC)C(C)C)C(=O)N[C@H](C(=O)N[C@@H](CCCNC(=N)N)C(=O)N[C@@H](CO)C(=O)N[C@@H](CCCNC(=N)N)C(=O)N[C@@H](Cc1c[nH]cn1)C(=O)N[C@@H](Cc1ccccc1)C(=O)NCC(=O)N1CCC[C@H]1C(=O)N[C@@H](CCCNC(=N)N)C(=O)N[C@@H](CC(C)C)C(=O)N[C@@H](CCCNC(=N)N)C(=O)N[C@@H](CCSC)C(=O)N[C@@H](C)C(=O)N[C@@H](CCCCNC(=O)CCCC[C@@H]1SC[C@@H]2NC(=O)N[C@@H]21)C(N)=O)C(C)C) [Peptide 11]
Log Pe of peptide (biotinylated) [1]: −6.0 ± −0.1

Molecule: Cyclo-MITWYEFVAGTK (not fully specified (C-terminus, bridges); printed as Cyclo-MITWYEFVAGTK; also: cyclized, ring closure not given here) [Peptide 8]
Log Pe of peptide (biotinylated) [1]: −6.5 and −6.5 ± −0.0 | Log Pe [1]: −5.9 | Log Pe of peptide [1]: −8.2 ± −0.2

Molecule: (N-MeNva)ITWYEFVAGTK ([NMeNva]ITWYEFVAGTK(Biotin)-NH2; N-terminus assumed; SMILES CCC[C@H](NC)C(=O)N[C@H](C(=O)N[C@H](C(=O)N[C@@H](Cc1c[nH]c2ccccc12)C(=O)N[C@@H](Cc1ccc(O)cc1)C(=O)N[C@@H](CCC(=O)O)C(=O)N[C@@H](Cc1ccccc1)C(=O)N[C@H](C(=O)N[C@@H](C)C(=O)NCC(=O)N[C@H](C(=O)N[C@@H](CCCCNC(=O)CCCC[C@@H]1SC[C@@H]2NC(=O)N[C@@H]21)C(N)=O)[C@@H](C)O)C(C)C)[C@@H](C)O)[C@@H](C)CC) [Peptide 9]
Log Pe of peptide (biotinylated) [1]: −7.4 ± −0.1 | Log Pe of peptide [1]: −7.0 ± −0.1

Molecule: O=C(O)CCCC[C@@H]1SC[C@@H]2NC(=O)N[C@@H]21 [biotin]
intestinal absorption efficiency ([2]; Zempleni and Mock (1999)): ~100% | oral bioavailability ([2]; as known in the field): ~100%

Molecule: MITWYEFVAGTK [reference compound]
Cyc t1/2 (chymotrypsin): 126 s | Lin t1/2 (chymotrypsin): 19.8 s | Cyc t1/2 (proteinase K): 60 s | Lin t1/2 (proteinase K): <12 s

bioavailability ([3]; 10 mg/kg): 9.4% | time of maximal uptake ([3]; po): 3 h | oral uptake efficiency ([3]; po, 10 mg/kg): 6.4%
Molecule: CSCC[C@@H]1NC(=O)CCCC(=O)NCCCC[C@@H](C(=O)N[C@@H](CCCCNC(=O)c2ccc3c(c2)C(=O)OC32c3ccc(O)cc3Oc3cc(O)ccc32)C(=O)N[C@H](CCCCNC(=O)CCCC[C@@H]2SC[C@@H]3NC(=O)N[C@@H]32)C(=O)O)NC(=O)[C@H](CO)NC(=O)[C@H](Cc2c[nH]c3ccccc23)NC(=O)[C@H](CCC(N)=O)NC(=O)[C@H](C)N(C)C(=O)[C@H](Cc2ccc(O)cc2)NC(=O)[C@H](CCC(=O)O)NC(=O)[C@H](Cc2ccc(O)cc2)NC(=O)[C@H](C)N(C)C(=O)[C@H](Cc2ccc(O)cc2)NC(=O)[C@H](Cc2ccccc2)NC1=O [biotinylated peptide] (MFY[NMeA]YEY[NMeA]QWSKK(5FAM)[dK](Biotin)-OH; linker N-12 via Glutaryl; C-terminus assumed)

Molecule: MFYAYEYAQWSK
Cyc t1/2 (chymotrypsin): <12 s | Lin t1/2 (chymotrypsin): <12 s | Cyc t1/2 (proteinase K): <12 s | Lin t1/2 (proteinase K): <12 s

Molecule: MSQTKRLDDQLYWWEYL (Biotin-MSQTKRLDDQLYWWEYL) [Peptide 10]
Log Pe of peptide (biotinylated) [1]: −6.2 and −6.2 ± −0.0 | Log Pe [1]: −4.8 | fold increase in peptide delivery ([1]; reducible vs nonlabile biotin conjugate): 16 fold | Log Pe of peptide [1]: −8.4 ± −0.1

Molecule: MITWYEFVAGTK [Peptide 7]
Log Pe of peptide (biotinylated) [1]: −6.6 ± −0.1 | Log Pe of peptide [1]: −7.8 ± −0.1

half-life (Human serum digests): 972 s
Molecule: CSCC[C@H](N)C(=O)N[C@@H](Cc1ccccc1)C(=O)N[C@@H](Cc1ccc(O)cc1)C(=O)N(C)[C@@H](C)C(=O)N[C@@H](Cc1ccc(O)cc1)C(=O)N[C@@H](CCC(=O)O)C(=O)N[C@@H](Cc1ccc(O)cc1)C(=O)N(C)[C@@H](C)C(=O)N[C@@H](CCC(N)=O)C(=O)N[C@@H](Cc1c[nH]c2ccccc12)C(=O)N[C@@H](CO)C(=O)N[C@@H](CCCCN)C(N)=O [linSUPR]

Molecule: NNNNNDKLY(N-MeW)WEFL (Biotin-NNNNNDKLY[NMeW]WEFL) [Peptide 6]
Log Pe of peptide (biotinylated) [1]: −6.6 ± −0.1 | Log Pe of peptide [1]: >−9.0
